In a protein production outcome set (Wang et al. 2014):

Experiment: label from the status in PepcDB records

Sequence: MELKMNDINQHSFLKLGSVRHIQSEQEALEIAKEMANQLNQFARNPSYNKTVPYDQARLISEAGLTAIIVPKQFGGLGASISTLVNVVKIISSADGGVGQLLQIHFTMFRGILTGYDDEIRDQLLADVLSGKRLGNALAEVGGKDKFQHKTRVERNSEGKLILNGSKFYSTGSLLAEWISLFAGSDDGPVSILIHRDTQGVELLNDWDAMGQNNSVSGTVNFKDVVVDERYVAKRNTGGLGTVLRTGLTWPQILHAAMDTGIAKGALQGGIDYLQHHARPWVESGVDSPTHESHIIKQIGEFAVLVRSAEALLDRSAQIFEQHLANVEDEDLQTELILSVAATRSQSDHASLKISSEIFGLLGASSTLSKWNLDRFWRNARTHTTHDPIRWRLYHVGNYYLNNIPPGEYNSVLLKKQAENVTKFSK
- protein production: failed

Sequence: MELLKHLSQRQYIDGEWVESANKNTRDIINPYNQEVIFTVSEGTKEDAERAILAARRAFESGEWSQETAETRGKKVRAIADKIKEHREALARLETLDTGKTLEESYADMDDIHNVFMYFAGLADKDGGEMIDSPIPDTESKIVKEPVGVVTQITPWNYPLLQASWKIAPALATGCSLVMKPSEITPLTTIRVFELMEEVGFPKGTINLILGAGSEVGDVMSGHKEVDLVSFTGGIETGKHIMKNAANNVTNIALELGGKNPNIIFDDADFELAVDQALNGGYFHAGQVCSAGSRILVQNSIKDKFEQALIDRVKKIKLGNGFDADTEMGPVISTEHRNKIESYMDVAKAEGATIAVGGKRPDRDDLKDGLFFEPTVITNCDTSMRIVQEEVFGPVVTVEGFETEQEAIQLANDSIYGLAGAVFSKDIGKAQRVANKLKLGTVWINDFHPYFAQAPWGGYKQSGIGRELGKEGLEEYLVSKHILTNTNPQLVNWFSK
- protein production: not failed

Sequence: MELLKIDCLGKSLRLEGSLAGWQLLFWDNNLVSQKAASVDNGGLKVHQFELTQHHSQLASDSGEAQVLENKILVRLETDVVWQPFRFDYRLLVDEEVIAQGTRTEKDIERQMPEIPVTAPQKFSFVGLASLGFKLLKSAKVIKVVLAGASVAAYSWLFSFQFALALIACLVFHEYGHIRAMKYFGMKTKGIYLIPFMGGLALSDEKINTRWQDVVISIMGPTFGLLMSVGSLIAYHFTDNIFFAGLAAFNALLNLFNLLPILPLDGGHILKSISFSMNSIMGLIACVIGAAFGVYISYTLGLALLGFLLLIGSLEIVFEWRSRHQSHLLPLDRYGQIFSTIWYLATVAALVGIIWHLAGTGDDMLSLPLQILRS
- protein production: failed

Sequence: MELQLAIDLLNKEDAAELANKVKDYVDIVEIGTPIIYNEGLPAVKHMADNISNVKVLADMKIMDAADYEVSQAIKFGADVITILGVAEDASIKAAIEEAHKNNKQLLVDMIAVQDLEKRAKELDEMGADYIAVHTGYDLQAEGQSPLESLRTVKSVIKNSKVAVAGGIKPDTIKDIVAESPDLVIVGGGIANADDPVEAAKQCRAAIEGK
- protein production: failed

Sequence: MELTLALVIFVICYLLIMAETFNRAVVACLGGVLMLFVGIYPLDAAFLQYIDWHTITLLLSMMILVSITSQSGFFEYMAIRLAQKVDGRPIPLLIVVAGITAIGSAFLNNVTMVLLIVPIVLTLTNLLKLNAVPFLLTLVMASNIGGTATLIGDPPNLMIGQAVAHLSFNDFLLHLGPIVAVIFFVVLIGLILYYRRQLSVTAEDRSRLRGVDPTSYLKNRPLLIKSMTVLTLTTIGFTIQPFLPVELTSIAMAGALLLMLITQNEQDMEGVFRSVEWVTLFFFIGLFMLVGGIKEVGIIDEIAKAIIYYTEGDIPKTSLFILWGSGILSGFVDNIPFVAAMIPVILEFQEYGVGELDPLWWSLALGACLGGNATVIGATANVIVAGLAVQAKQSFSYLEFLKVGAPVALVSFLLCTVYLYIRYLIYF
- protein production: failed

Sequence: MELVAGSYEQVLFGFTVQRGPAKSGHQETWTPVADFTHHSHTASLSVLASNSRYVVSGSKDETIHIYDMKRKVEHGALVHHAGTVTCLKFHGNQHLISGAEDGHICIWDVKRWKCLKTFKAHRGHVTFLSIHPSGKLALSVGTDKTLRTWNLIEGRSAFIKNIKENAHIVEWSPSGGKYIVVVQNKVDVYRLGTASVSGTITNGKRISSVTFLSDSVLAVAGDEEVVRIFDCDSLECLCEFRAHENRVKDMVSFEVPDHHVLVTASNDGFIKMWTLPQDKKVPPSLLCEAKTGARLTCLTVWLDRAANGMASLPPAAEPCPDQPKTIEKESGDTVQEETSEPNSEKSDVSGDSKQPTKGNSPVTAKKRKMATMSEKKRKKKMSLTWQIPDFSSLSECPFDGILHVPVRRKYLLP
- protein production: failed

Sequence: MELVHGISTHFIQSKKFKTNKITVRFTAPLSLDTIAGHMLSASMLETANQMYPTSQDLRRHLASLYGTDMSTNCFRRGQSHIIELTFTYVRDEFLSRKNVLTSQILELVKETLFSPVVVDNGFDPALFEIEKKQ
- protein production: failed

Sequence: MENFAEIVGIGPAGVISITGGGGKTSLMFHLARQLAYSGKRVLTTTTTKILAPSVEESRTLLISQDPQVILRHAKAHPGPGVHVSAAAGHIPHTEKLQGFPREAIRTFEDSGEFDWVVVEADGAARKPLKAPAAHEPVIPGNSTIVVALAGLEVLGRPLGEEMVFRSELAGELMQIPQGETITVPALARLLAHPSGGFKGAPPQARRFIFLNKADTPELQEKGGEVALQLKEIAPSVAEAVIVGQLRQEITLHRVYPRGELEHHHHHH
- protein production: not failed

Sequence: MENIKNPKNADDCSDSISKNSHQGVDDSLNQSRSYVCSFCIRGFSNAQALGGHMNIHRRDRAKLRQKLMEDNKDDVVAESDASEVVSLDLNEQQQQQGEALTCDDHDQYVDNDISPKQKLEFWVQESKLDTNDHGKVTEASIDGSSSSHHRDIEVLDLELRLGQSVVKKKTT
- protein production: failed

Sequence: MENKRNVCSLGESSIKRHKSDLSFSSKERKDKVGERISALQQIVSPYGKFPCSFVQVLSAPYLQTVPDATQEELEQYSLRNRGLCLVPMENTVGVAQSNGADIWAPVKTPLSPAFSVTSQSPFR
- protein production: failed

Sequence: MENQTPSQALISKGWKYFIIVGVIVALAGLGATSLPVMAGVTISTIIGTLLLITGLVQVYHTFRIHSWKEKLWYVLSALFYIVGALFILFKPLEGLMTITTIMIVIMIFNGLTRMIFGFTNRSLPGCGMVILSGLLSVVIGGYFFSLFDNPEFSLSLLGTFVGVSLIFEGMSFLFIGLRLRNASKA
- protein production: failed

Sequence: MENRAHAFLAGLFTIGLAIFIALAVVWFNRDQTVRVPYEVVTRSTVNGLSPQAAVKYRGLDVGKVDSIRFDDRVPGQIIVRVLVDKDAPITTTTYGRLAYQGVTGLAYVQLDDRGYDGGKRAANPTRLETSDRRPARIAMEAGFLDELDKRGDQMLARIDQTLSSLSALFDDEHRQALMAAMQSFQGTMDSYNALARQAEPTMRRLPQIADNLDATLSATRRLSQSLSDPKGPLMGTLASAGNDLSSASQSMQAATNVLANETLPQLNGFAREARQAVRSFDHAVTDFNTRPQSVLFGPAPATPGPGETGFAAPQVSAAPSVAVPATARP
- protein production: failed

Sequence: MENWVIQIIERLGYLGIAFLMFLDNVFPPIPSEIIMPSAGYTASRGQLQIIGVIVAGSLGSILAAAILYALGRQISHAALFRWTDRYGKYLLIQTKDLQIALEWFEKYGHRIVFFGRMIPAVRSLISIPAGMSRMPFWKFMLYSSLGTVIWTTFLAGVGFYFGENQAFMFSIMHRVGYLILAITLMVSVWWIYHKFYKKR
- protein production: failed

Sequence: MEPAILIITLICGMLVSRIGLPPLIGYLVAGFVLFVMGIEKESMPLLQELANLGVTLLLFAIGLKLDIRSLFKAEVWAGSSVHLILSILVFVPILKILGLLGLSQLTSLGIEQLTLLAFALSFSSTVFAVKVLEDKGDMQSLYGRVAIGILIMQDIFAVLFLTISKGDVPSVWAFALLLLPLAKPLIYKAFDRVGHGELLVLFGLVMALVVGAWLFESLGLKPDLGALVIGILLAGHKKASELAKSLFYFKELFLVAFFLTIGLNGLPTVSDIVLAALLVLLVPLKILLFVYILTRFKLRSRTSMLGSFNLGNFSEFGLIVAAVATSKGWLPSHWLVIIAVALSFSFLLAAPLNATVGSIYQRFQLRLVRLEKRPLHPEDRPIAIGNPRFLILGMGRIGSGAYDELRARFDGEILGIEHKQDLVDLHRAKGRNVVQGDASDTDFWEKLDKAPNLELVLLAMPHHAGNLFAVEQLNKLNYQGKISAIVQYGEDAASLRNSGVHSVYNLYEAAGAGFVDHVVHELLPDSETKAGTEAQEGTQKQTSSLV
- protein production: failed

Sequence: MEPEEERIRYSQRLRGTMRRRYEDDGISDDEIEGKRTFDLEEKLHTNKYNANFVTFMEGKDFNVEYIQRGGLRDPLIFKNSDGLGIKMPDPDFTVNDVKMCVGSRRMVDVMDVNTQKGIEMTMAQWTRYYETPEEEREKLYNVISLEFSHTRLENMVQRPSTVDFIDWVDNMWPRHLKESQTESTNAILEMQYPKVQKYCLMSVRGCYTDFHVDFGGTSVWYHIHQGGKVFWLIPPTAHNLELYENWLLSGKQGDIFLGDRVSDCQRIELKQGYTFVIPSGWIHAVYTPTDTLVFGGNFLHSFNIPMQLKIYNIEDRTRVPNKFRYPFYYEMCWYVLERYVYCITNRSHLTKEFQKESLSMDLELNGLESGNGDEEAVDREPRRLSSRRSVLTSPVANGVNLDYDGLGKTCRSLPSLKKTLAGDSSSDCSRGSHNGQVWDPQCAPRKDRQVHLTHFELEGLRCLVDKLESLPLHKKCVPTGIEDEDALIADVKILLEELANSDPKLALTGVPIVQWPKRDKLKFPTRPKVRVPTIPITKPHTMKPAPRLTPVRPAAASPIVSGARRRRVRCRKCKACVQGECGVCHYCRDMKKFGGPGRMKQSCVLRQCLAPRLPHSVTCSLCGEVDQNEETQDFEKKLMECCICNEIVHPGCLQMDGEGLLNEELPNCWECPKCYQEDSSEKAQKRKMEESDEEAVQAKVLRPLRSCDEPLTPPPHSPTSMLQLIHDPVSPRGMVTRSSPGAGPSDHHSASRDERFKRRQLLRLQATERTMVREKENNPSGKKELSEVEKAKIRGSYLTVTLQRPTKELHGTSIVPKLQAITASSANLRHSPRVLVQHCPARTPQRGDEEGLGGEEEEEEEEEEEDDSAEEGGAARLNGRGSWAQDGDESWMQREVWMSVFRYLSRRELCECMRVCKTWYKWCCDKRLWTKIDLSRCKAIVPQALSGIIKRQPVSLDLSWTNISKKQLTWLVNRLPGLKDLLLAGCSWSAVSALSTSSCPLLRTLDLRWAVGIKDPQIRDLLTPPADKPGQDNRSKLRNMTDFRLAGLDITDATLRLIIRHMPLLSRLDLSHCSHLTDQSSNLLTAVGSSTRYSLTELNMAGCNKLTDQTLIYLRRIANVTLIDLRGCKQITRKACEHFISDLSINSLYCLSDEKLIQKIS
- protein production: failed

Sequence: MEPGPEDYLVCAIAKPADKRLVVEKLLGKGARFFTLIHPSVIMGENVVIGQGAVICPSTVLSVDLRIGAFVTLNIGCLVGHDADIGDFSTLSGHCDITGGVVLEEEVFMGTHASVLPNVKVGKQAVVGAGSVAIRNVAAGITVFGVPAKRISGLEHHHHHH
- protein production: failed

Sequence: MEPIVFNGYHTLITATLVLLVGRFFVNKIKVLQDFNIPEAVAGGLIAAVAILCLYNWFGVSLQFEQSLQNAFMLAFFSSVGLSADFSRLKQGGMPLVIFLVVVSLYIIIQNVIGVGLASALGLDPMIGLLTGSITLTGGHGTGAAWAKIFSEEYNITGVMEMAMASATFGLVAGGLIGGPIARRLINKMKKDRSQQITKRVDTSAEQYDGSTFEDHDSIRYITASSTIETMALFAACLGFSSIIVNTFPDISLPQFVWALGFGVILRNVLTKVFKFDMFDRAIDVFGNASLSMFLAMALMSIKLWELTGLAGPMLIILVVQTLVMILYGYFVTYRVMGKDYDAAILTAGHCGFGLGATPTAVANMQSVTEKFGSSHKAFLIVPLVGAFFVDILNLAVITSFVDFLR
- protein production: failed
